Source: the supplement of paper PMC10126150
± gives the standard deviation of the averaged measurements.

System: ATP
Assay: switch fluorescence ratio, 500 uM ATP over buffer (Cy3 cluster intensity, sum of 5 cycles each) (fold (ratio)); higher = stronger signal-on switching upon ATP binding; sequences stand for … in TCGTCGGCAGCGTCAGATGTGTATAAGAGACAGTTTTTTTTTTTTTTTTTTTTTTTTT…TC
Settings: aptamer strand: ATP DNA aptamer (quencher-CACCTGGGGGAGTATTGCGGAGGAAGG + anchor), 100 nM annealed; ATP concentration: 500 uM
How it was run: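 Clusters carrying Cy3-labelled switching strands on a modified Illumina MiSeq flow-cell were annealed to 100 nM quencher-labelled ATP aptamer and imaged in selection buffer. They were imaged again after 15 min with 500 uM ATP at 22 °C, over five buffer/ATP cycles with NaOH stripping and re-annealing in between. For each cluster, the fluorescence ratio is the summed Cy3 intensity of the target cycles divided by that of the buffer cycles, averaged per switch-domain sequence. Clusters outside 100-1000 RFU were left out.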
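Also: ATP exposure 15 min at 22 °C before imaging.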

Sequence | switch fluorescence ratio
TGGGAAATTT | 1.1 ± 0.12
TGGGAACGGG | 0.983 ± 0.018
TGGGAAGAGT | 0.996 ± 0.028
TGGGAAGGGG | 0.998 ± 0.013
TGGGAAGTGG | 1.04 ± 0.071
TGGGAATGGG | 0.986 ± 0.011
TGGGAATTTT | 1.01 ± 0.049
TGGGACGGGC | 0.98 ± 0.049
TGGGAGAAAG | 0.999 ± 0.024
TGGGAGAGGG | 1.01 ± 0.02
TGGGAGAGTA | 0.996 ± 0.034
TGGGAGGAAA | 1.01 ± 0.039
TGGGAGGAGG | 1.01 ± 0.077
TGGGAGGCCT | 1.02 ± 0.021
TGGGAGGGCT | 1.05 ± 0.093
TGGGAGGGGT | 1.01 ± 0.014
TGGGAGGTGT | 1.04 ± 0.028
TGGGAGTAAA | 1.02 ± 0.027
TGGGAGTACT | 1.0104 ± 0.00041
TGGGAGTCTG | 0.9898 ± 0.0047
TGGGAGTGGG | 0.983 ± 0.019
TGGGATACGG | 1.61 ± 1

Sequence | switch fluorescence ratio
TGGGATACTG | 1 ± 0.013
TGGGATAGAG | 1 ± 0.021
TGGGATATTC | 0.9991 ± 0.0032
TGGGATTAGT | 0.9868 ± 0.00058
TGGGCAAGGT | 1.05 ± 0.038
TGGGCAGGGG | 1.3 ± 0.57
TGGGCCAGA | 1.01 ± 0.024
TGGGCCGCGC | 1.04 ± 0.046
TGGGCCTAAG | 0.968 ± 0.061
TGGGCG | 0.994 ± 0.018
TGGGCGAATG | 0.9946 ± 0.0058
TGGGCGGGGC | 0.998 ± 0.018
TGGGCGGGGG | 1.03 ± 0.036
TGGGCGGTCT | 1.03 ± 0.039
TGGGCTCCTT | 1 ± 0.043
TGGGCTGCTT | 0.965 ± 0.017
TGGGGAAAAC | 1.02 ± 0.051
TGGGGAAATA | 1.41 ± 0.57
TGGGGAACTT | 1.03 ± 0.041
TGGGGAATAA | 1.01 ± 0.022
TGGGGACGGG | 1 ± 0.046
TGGGGACTTT | 1.04 ± 0.045

Sequence | switch fluorescence ratio
TGGGGAGAAC | 1.055 ± 0.0077
TGGGGATACT | 1.04 ± 0.036
TGGGGATAGC | 1.02 ± 0.053
TGGGGATCAC | 1.01 ± 0.071
TGGGGATGGG | 0.996 ± 0.029
TGGGGATGGT | 0.991 ± 0.062
TGGGGATTGT | 0.968 ± 0.023
TGGGGCAAGG | 1.04 ± 0.031
TGGGGCACGG | 1.09 ± 0.19
TGGGGCCTTT | 0.9981 ± 0.0045
TGGGGCTAAT | 1.02 ± 0.034
TGGGGCTCTT | 1 ± 0.013
TGGGGCTTTG | 1.03 ± 0.026
TGGGGGACGC | 1.08 ± 0.045
TGGGGGACTC | 0.988 ± 0.023
TGGGGGAGG | 0.9974 ± 0.0058
TGGGGGAGGC | 0.973 ± 0.042
TGGGGGAGTG | 0.985 ± 0.024
TGGGGGATAT | 1.05 ± 0.052
TGGGGGATTT | 1.27 ± 0.74
TGGGGGCACG | 1 ± 0.026
TGGGGGCCAT | 0.999 ± 0.014

Sequence | switch fluorescence ratio
TGGGGGCCGA | 1.049 ± 0.0034
TGGGGGCTAT | 0.989 ± 0.053
TGGGGGCTTA | 0.99 ± 0.059
TGGGGGCTTC | 0.9896 ± 0.0091
TGGGGGGAAA | 1.01 ± 0.054
TGGGGGGAGC | 1 ± 0.022
TGGGGGGATA | 0.994 ± 0.045
TGGGGGGCAG | 0.969 ± 0.017
TGGGGGGCAT | 1.07 ± 0.19
TGGGGGGCTG | 0.983 ± 0.048
TGGGGGGGCG | 0.998 ± 0.04
TGGGGGGGGC | 1.01 ± 0.034
TGGGGGGGGT | 1.02 ± 0.18
TGGGGGGGTA | 0.991 ± 0.026
TGGGGGGTCC | 1.01 ± 0.039
TGGGGGGTGA | 0.997 ± 0.049
TGGGGGTAAC | 1.1 ± 0.18
TGGGGGTACT | 1.01 ± 0.011
TGGGGGTATC | 0.978 ± 0.024
